Results published in patent US20170322229A1, “HIGH AFFINITY VITAMIN D3 BINDING PROTEINS” (UNIVERSITY OF WASHINGTON, priority 2015, published 2017).

Tests used:
[1] = Yeast surface display and flow cytometry titration against vitamin D3; format: binding; details: for specificity for 25-D3 over vitamin D3: preference for 25-D3 over non-hydroxylated vitamin D3
Description: (§1) Binding activity yeast surface display and flow cytometry, according to methods previously described by Wittrup et al.

[2] = Approximate Kd summary (Table 4) / measured binder ranking, method not stated; format: binding; details: Ligand Target 25-hydroxycholecalciferol
[3] = Yeast surface display and flow cytometry binding/titration against 25-D3; details: for Kd: yeast surface display, 25-D3
Description: We discovered another binder for 25-D3, referred to here as CDL2. […] It was further evolved to investigate and improve its specificity and affinity. To test a broader number of mutants, CDL2 was optimized using ep-PCR as well as small computationally guided library. The computationally guided library was constructed by docking the ligand into the binding site and optimizing the interactions between 25-D3 and the protein using ROSETTA®. To increase the sampling of the ligand, short MD simulations were performed to make small perturbations of the backbone. These computational variants, as well as variants generated via error prone mutagenesis, were expressed on yeast and sorted via fluorescence activated cell sorting. Individual designs sequenced from various rounds of mutagenesis and sorting were sequenced during the evolution to inform further design and mutagenesis strategies. One evolved variant, CDL2.1, incorporated 10 mutations scattered around the protein. Another evolved variant CDL2.2 is the most advanced variant from the directed evolution efforts.
as §1

[4] = Fluorescence polarization binding of 25-D3; details: read-out: Approximate Kd

Molecule	specificity for 25-D3 over vitamin D3 [1]	Kd [2] [nM]	Kd ([3]; read-out: Kd) [nM]	Kd ([1]; yeast surface display, vitamin D3, read-out: Approximate Kd) [nM]	Kd ([3]; read-out: Approximate Kd) [nM]	Kd [4] [nM]	binding signal for 25-D3 on yeast ([3]; yeast display and flow cytometry, biotinylated 25-D3)
CDL1: designed 25-D3 binder based on scaffold PDB ID 1Z1S, a putative isomerase; 8 mutations from 1Z1S (protein) SGREQGHMNAKEILVHALRLVENGDARGFCDLFHPEGVMEFPYAPPGYKTRFEGRETIWAHMRLFPEHLTIRFTDVQFYETADPDLAIGEFHGDGVATVSGGKLAQDFISVLRTRDGQILLSRIFWNPLRHLEALGGVEAAAKIVQGA	did not show a significant preference	1300	~2000	–	–	–	–
CDL2.1: evolved variant of CDL2 incorporating 10 mutations scattered around the protein (protein) DQSAKEAIEAALADFVKVYNSKDAAGVASKYMDDAAIFPLDMAPVDGRQNIQKLWQGLMDMGVSEPKFTTLNVQKSGDFAFESGSFSLKGPGKDSKLVDIAGIYVEVWRKGQDGGWKLYRTIANLDPAK	–	319	–	~1900	~319	–	–
CDL2.2: slightly truncated from HH35.v1/CDL2.1; most advanced variant from the directed evolution efforts (protein) QSAKEAIEAALADFVKVYNSKDAAGVASKYMDDAAIFPLDMAPVDGRQNIQKLWQGLMDMGVSEPKFTTLNVQKSGDFAFESGSFSLKGPGKDSKLVGIAGIYVEVWRKGQDGGWKLYRTIANLGP	–	–	–	–	–	~188	–
CDL2: designed 25-D3 binding protein based on scaffold PDB ID 3HX8, a putative ketosteroid isomerase (protein) GQSAKEAIEAALADFVKAYNSKDAAGVASKYMDDAAIFPLDMARVDGRQNIQKLWQGLMDMGVSELKLTTLDVQESGDFAFESGSFSLKGPGKDSKLVDVAGKYVVVWRKGQDGGWKLYRTISNLDPAK	–	2100	–	–	–	~2100	exceptionally strong signal
CDL1.1: evolved variant of CDL1 with mutations P46S, R55A, H68P, G136V; truncated as well as mutated from 6234 (protein) NLYFQGHMNAKEILVHALRLVENGDARGFCDLFHPEGVMEFPYAPSGYKTRFEGAETIWAHMRLFPEPLTIRFTDVQFYETADPDLAIGEFHGDGVATVSGGKLAQDFISVLRTRDGQILLSRIFWNPLRHLEALV	about two fold over CDL1	229	–	–	~229	–	–
